In general, Kd refers to the equilibrium constant for the complex coming apart. Read a low Kd as a tighter complex.

The target in this data set is VEGF165 (human, UniProt P15692-4 27-191). Description: MST.

B1: V7t1 (3'-Cy3) (structured_DNA)
DNA: TGTGGGGGTGGACGGGCCGGGTAGA
Molecule B1 registered a Kd of 75.9 ± 13 nM.

The values above are taken from paper PMC4980704.
